Test results from patent publication US20220332839A1, “USE OF PRG4 TO TREAT CANCER” (Lubris LLC, priority 2019, published 2022).

How the values were obtained:
CD44-IgG1Fc = biological target: T1, CD44-IgG1Fc (Homo sapiens, UniProt P16070); assay: Direct ELISA: binding of coated macromolecules to CD44-IgG1Fc
T1 construct: purchased R & D systems
Method: High-binding microtiter plates (Corning, Sigma Aldrich, USA) were coated with rhPRG4 (Mr≅240 KDa), high molecular weight HA (HMW HA; Mr≅1,500 KDa) (R & D System, USA), medium molecular weight HA (MMW HA; Mr≅′300KDa) (R & D System) and vitronectin KDa) (Sigma Aldrich) at 400 μg/mL in PBS buffer (100 μL per well) overnight at 4° C. rhPRG4 is a full-length product produced by CHO-M cells (Lubris, Framingham, Mass., USA). Following washing with PBS+0.1% Tween 20, wells were blocked with 2% bovine serum albumin (BSA; 300 μL per well) for at least 2 hours at room temperature. CD44-IgG1Fc (R & D systems) or IgG1Fc (R & D systems), each at 1 μg/mL (100 μl per well), were added to the plate and incubated for 60 min at room temperature. Following washing with PBS+0.1% tween 20, anti-IgG1Fc-HRP (Sigma Aldrich) was added at 1:10,000 dilution (100 μL per well) and incubated for 60 min at room temp. Following washing with PBS+0.1% tween 20, the assay was developed using 1-step Turbo TMB ELISA reagent (ThermoScientific, USA) and absorbance was measured at 450 nm. The data represents an average of 4 independent assays, each with triplicate wells per group.
The concentration-dependent binding of rhPRG4, HMW HA and MMW HA to CD44 was performed by coating microtiter plates with 400, 200, 100, 20, 4, 2 and 0.1 μg/mL of the macromolecules. The assay was performed as described above. The absorbance values in the IgG1Fc wells were subtracted from the absorbance values in the CD44 IgG1Fc wells and the corrected CD44 IgG1Fc absorbance values were normalized to those of the 400 μg/mL rhPRG4 group and data was expressed as percentage binding to CD44. The concentration-dependent binding of rhPRG4, HMW HA and MMW HA to recombinant CD44 is depicted in FIG. 1B. […] The data represents an average of 4 independent assays, each with triplicate wells per group.
rhPRG4 was digested using sialidase A (Prozyme, USA), O-glycosidase (New England Biolabs, USA) or a combination of sialidase A and O-glycosidase for 16 hours at 37° C. In the sialidase A digestion, 12 μL of the enzyme (1U/200 μL) was added to rhPRG4 in a total reaction volume of 180 μL and a rhPRG4 final concentration of 300 μg/mL. In the O-glycosidase digestion, 4.8 μL of the enzyme (40million units/mL) was added to rhPRG4 in a total reaction volume of 180 μL and a rhPRG4 final concentration of 300 μg/mL under non-denaturing conditions. In the sialidase-A and O-glycosidase digestion, the enzymes were used in volumes identical to the ones stated above and incubated with rhPRG4 in a total reaction volume and final rhPRG4 concentration as stated above. The effect of sialidase-A and O-glycosidase digestions on rhPRG4 apparent molecular weight was determined by SDS-PAGE using 4-12% Bis-Tris gel (NuPage, life technologies, USA). A total of 20 μL of rhPRG4 or enzyme-digested rhPRG4 was run under reducing conditions ([…] for 60 min) followed by staining using Gelcode Blue Stain (Thermo Scientific, USA). Binding of enzymatically digested rhPRG4 to CD44 was compared to undigested rhPRG4 using the direct ELISA approach described above and using an rhPRG4 coating concentration of 30 μg/mL. Data represents the average of 4 independent experiments, each with triplicate wells per group.

HLE and HLF cells = assay: HCC cell adhesion assay on coated wells; assay type: cell-based, human; settings: CD44-shRNA vs control-shRNA; 30 minutes
Text: Stable CD44 silencing: HLE and HLF cell lines were transduced with lentiviral particles carrying control non-targeting (V), or specific CD44-targeting shRNA sequences (A to D), and selected with puromycin dihydrochloride (Thermo Fisher Scientific) to obtain stable CD44 silencing, according to manufacturer instructions (OriGene Technologies, Inc., Rockville, Md. 20850, USA). Control-shRNA sequence (V) and CD44-shRNA sequence B were used in all the experiments involving CD44 downregulation.
Adhesion assay: Diluted in 100 μl of serum free DMEM medium (+0.5% BSA), 50,000 cells, were seeded onto uncoated, rhPRG4, or fibronectin (FN)-coated wells of a 96-well plate, and then incubated at 37° C., 5% CO2 for 30 minutes. An equal volume of 4% PFA (pH 7.2 in PBS) was added and the plates were immediately flicked for a few seconds to allow mixing. Thirty minutes later, the medium was removed and the adherent cells were stained with crystal violet for 10 min. After abundant washing with tap water and distilled water the stained cells were allowed to dry out, and then they were solubilized with 100 μl of 1% sodium dodecyl sulphate in water. Absorbance was read at 595 nm and proportionally related to the number of adhered cells.

T1 sequence (P16070 with tags, fused parts or gaps limits assumed): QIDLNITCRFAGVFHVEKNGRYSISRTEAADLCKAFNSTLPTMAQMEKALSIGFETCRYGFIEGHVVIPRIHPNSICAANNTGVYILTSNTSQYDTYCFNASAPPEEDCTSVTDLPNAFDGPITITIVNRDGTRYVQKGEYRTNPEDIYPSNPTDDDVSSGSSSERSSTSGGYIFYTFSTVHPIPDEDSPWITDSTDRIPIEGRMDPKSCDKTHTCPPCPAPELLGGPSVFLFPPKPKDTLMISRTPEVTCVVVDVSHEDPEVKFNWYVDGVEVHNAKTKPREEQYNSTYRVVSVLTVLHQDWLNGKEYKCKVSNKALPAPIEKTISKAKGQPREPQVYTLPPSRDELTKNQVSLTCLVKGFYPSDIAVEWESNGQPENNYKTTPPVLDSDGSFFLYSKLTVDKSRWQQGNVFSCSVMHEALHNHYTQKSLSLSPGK

Substance: rhPRG4: full-length recombinant human PRG4 (lubricin) glycoprotein produced by CHO-M cells; residues 25-1404 of SEQ ID NO:1
- concentration-dependent binding to CD44, affinity (CD44-IgG1Fc): comparable affinity to HMW HA
- percentage CD44 binding between rhPRG4, HMW HA and MMW HA-coated wells (CD44-IgG1Fc; 0.1 μg/mL coating): no significant differences
- percentage recombinant CD44 binding compared to MMW HA coated wells (CD44-IgG1Fc; 200 μg/mL coating, p<0.001): significantly higher
- percentage recombinant CD44 binding compared to HMW HA or MMW HA-coated wells (CD44-IgG1Fc; 400, 100, 20, 4 and 2 μg/mL coating, p<0.001): significantly higher
- 450 nm absorbance in the CD44-IgG1Fc group vs the IgG1Fc group (CD44-IgG1Fc; wells coated at 400 μg/mL, CD44-IgG1Fc or IgG1Fc at 1 μg/mL): significantly higher
- cell adhesion to lubricin-coated wells (HLE and HLF cells): impaired upon silencing of CD44 expression
